Laboratory results: patent US20090325168

Key:
[1] = test system: T1, Fl-NorFES-KGY-Fl (fluorescein-NorFES-fluorescein)
T1 sequence: DAIPXSIPKGY

6-TMR-NorFES-KGY-DER = test system: T2, 6-TMR-NorFES-KGY-DER
T2 sequence: DAIPXSIPKGY

6-TMR-K-NorFES-KGY-6-TMR = test system: T3, 6-TMR-K-NorFES-KGY-6-TMR
T3 sequence: KDAIPXSIPKGY

6-TMR-NorFES-KGY-6-TMR = test system: T4, 6-TMR-NorFES-KGY-6-TMR
T4 sequence: DAIPXSIPKGY

6-TMR-K-NorFES-KGY-DER = test system: T5, 6-TMR-K-NorFES-KGY-DER
T5 sequence: KDAIPXSIPKGY

DER-NorFES-KGY-DER = test system: T6, DER-NorFES-KGY-DER
T6 sequence: DAIPXSIPKGY

What does the source list for elastase?
T1/2 (cleavage rate) [1]: 0.3 min; T1/2 (cleavage rate) (6-TMR-NorFES-KGY-DER): 1.33 min; T1/2 (cleavage rate) (6-TMR-K-NorFES-KGY-6-TMR): 1.4 min; T1/2 (cleavage rate) (6-TMR-NorFES-KGY-6-TMR): 0.733 min; T1/2 (cleavage rate) (6-TMR-K-NorFES-KGY-DER): 2.08 min; T1/2 (cleavage rate) (DER-NorFES-KGY-DER): 2.53 min
